This is an account of results in article PMC11208920, “The binding of LARP6 and DNAAF6 in biomolecular condensates influences ciliogenesis of multiciliated cells”.

The target in series [1] is T1, rLARP6 (recombinant human LARP6, LAM+RRM only) (Homo sapiens, UniProt Q9BRS8 73-303).
T1 sequence: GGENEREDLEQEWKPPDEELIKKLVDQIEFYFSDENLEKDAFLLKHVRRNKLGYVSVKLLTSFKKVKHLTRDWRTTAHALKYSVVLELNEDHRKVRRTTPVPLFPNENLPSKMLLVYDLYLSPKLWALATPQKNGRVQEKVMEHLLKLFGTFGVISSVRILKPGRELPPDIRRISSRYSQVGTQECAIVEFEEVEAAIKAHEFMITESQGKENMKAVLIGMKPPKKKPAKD
Kind of series: EMSA; 5 mM Mg2+; monomer and dimer complexes; 10 mM Tris pH 7.5, 100 mM KCl, 5 mM MgCl2, room temperature, 10 min; 6% native gel, SYBR Gold. The note with it: protein: recombinant. On the technique in general: In EMSA bound probe runs differently from free probe, usually more slowly.

Series [2] addresses T1, rLARP6 (recombinant human LARP6, …). Kind of series: EMSA; 5 mM Mg2+; 10 mM Tris pH 7.5, 100 mM KCl, 5 mM MgCl2, room temperature, 10 min; 6% native gel, SYBR Gold. The settings on record: protein: recombinant; label: SYBR Gold stain.

B1: xTUBA1CL RNA probe (ssRNA)
RNA: GAGGGAGAAGAAUAUUAAAUAAUAAAUCAAAAGCUUCACAAUAAUACCUGCAGAUUUUGUUUGAAAUAAUAAUUUUGAAUAAAUACGUUUUUAUCUUGUA
As for B1, the binding result in series [1] (label: SYBR Gold stain (Results text says radiolabeled)) is “binds”. Regarding CCACAAAGAGUCUACAUGUCUAGGGUCUAGACAUGUUCAGCUUUGUGG (structured_RNA) [hCOL1A2 WT RNA], in series [1] (label: SYBR Gold stain), the binding result is given as “binds”. CCACAAAGUGACUACAUGUCUAGGGUCUAGACAUGUUAUUCUUUGUGG (structured_RNA) [hCOL1A2 MUT RNA]: the binding result in series [2] was “no binding”.
